Reference: publication doi:10.1101/2022.06.21.496751 (bioRxiv, 2022)

Tests used:
[1] = molecular target: full-length Spike of SARS-CoV-2 (UniProtKB-P0DTC2) expressed on 293T cells (SARS-CoV-2, UniProt P0DTC2); test: flow cytometry on cells
[2] = molecular target: Spike of the SARS-CoV-2 Omicron (BA.1) variant expressed on 293T cells (SARS-CoV-2, Omicron BA.1, strain); test: flow cytometry on cells

B1: Ab159 recombinant monoclonal antibody (IgG) (antibody, V domains shown)
VH: QVQLVESGGGLVKPGGSLRLSCAASGFTFNNAWMSWVRQAPGKGLEWVGRIKSKTDGGTTDYAAPVKGRFTFSRDDSKNTLYLQMSSLKTEDTALYYCTTADYDILTGTPASPYWGQGTLVTVSS
VL: DIQMTQSPSSLSASVGDRVTITCRASQSITNYLNWYQQKPGKAPKFLIYAASSLQGGVPSRFRGSGSGTDFTLTISSLQPEDFATYYCQQTYSTLWTFGQGTKVEIK
- binding result [1]: binds

B2: Ab354 recombinant monoclonal antibody (IgG) (antibody, V domains shown)
VH: QVQLVQSGAEVKKPGASVTVSCKASGFLFTGYYMHWVRQAPGQGLEWMGWINPNSGASNYTRKFQGRVTMTRDTSISATYMKLSRLTSDDTAVYYCARDLAFSMVRGALDYWGQGTLVTVSS
VL: QLVLTQPPSASGSPGQSVTISCTGTSSDVGGYNYVSWYQHHPGKAPKLMIYEVSKRPSGVPDRFSGSKSGNTASLTVSGLQAEDEADYYCNSYAGNNNWVFGTGTKVTVL
- binding result [1]: binds

B3: Ab496 recombinant monoclonal antibody (IgG) (antibody, V domains shown)
VH: EVQLVQSGPEVKKPGTSVKVSCKASGFIFTNSAVQWVRQARGQRLEWIGWIVVGSGNPNYAQKFQERVTITRDRSTSTAYMELSSLTSEDTAVYYCAAFPYYYDNSGSGPWGQGTLVTVSS
VL: DIQLTQSPSSLSASVGDRVTITCQASQDIRNNLNWYQQIPGKAPKLLIYDASNLETGVPSRFSGSASGTDFTFTISSLQPEDVATYYCQQYANLPPFTFGPGTKVDIK
- binding result [1]: binds

B4: Ab445 recombinant monoclonal antibody (IgG) (antibody, V domains shown)
VH: EVQLVESGGGVVQPGTSPRLSCAASGFTFSNSGMHWVRQAPGKGLEWVAVIWYDGSKKYYVDSVKGRFTISRDNSKNTLYLQMNSLRAEDTAVYYCARDGTVAVRGVMNPFFDYWGQGTLVTVSS
VL: DIQLTQSPSSLSASVGDRVTITCQASQDISNYLNWYQQIPGKAPKLLIYDASNLETGVPSRFSGSGSGTDFTFTISSLQPEDIATYYCQQYDNLPYTFGQGTKLEIK
- binding result [1]: binds

B5: Ab188 recombinant monoclonal antibody (IgG) (antibody, V domains shown)
VH: EVQLVESGGGLVQPGGSLRLSCAASGFTFINYKMNWVRQAPGKGLEWVSYISSGSDAIYYADSVKGRFTISRDNAKNSLYLQMNSLRDEDTALYYCARGGGYNYGECMDVWGQGTTVTVSS
VL: not shown
- binding result [2]: binds
- binding result [1]: binds

B6: Ab326 recombinant monoclonal antibody (IgG) (antibody, V domains shown)
VH: EVQLVESGGGVVQPGRSLRLSCAASGFTFSHYPMHWVRQAPGRGLEWVAVISYDGSNQHYVDSVKGRFTISRDNSKNTLYLQMNSLRAEDTAVYFCASLITMIRGVPDYWGQGTLVTVSS
VL: DIQMTQSPSSLSASVGDRVTITCRASQSISNYLNWYQQKPGKAPNLLIFAASSLQSGVPSRFSGSGSGTEFTLTISSLQPEDFAAYYCLQTYSTPRTFGQGTRLEIK
- binding result [1]: binds
